Measured values taken from article PMC3608507 (Molecular Biology of the Cell, 2013).
Like-named read-outs stand apart in the source and are kept apart here. Values belong to the binder of their own block, whether it stands above or below them.

Assays:
Assay in all cases: ELISA
His-lasp-2 (full-length) [1] = molecular target: T1, His-lasp-2 (full-length) (UniProt Q9DC07 1-270)
T1 sequence: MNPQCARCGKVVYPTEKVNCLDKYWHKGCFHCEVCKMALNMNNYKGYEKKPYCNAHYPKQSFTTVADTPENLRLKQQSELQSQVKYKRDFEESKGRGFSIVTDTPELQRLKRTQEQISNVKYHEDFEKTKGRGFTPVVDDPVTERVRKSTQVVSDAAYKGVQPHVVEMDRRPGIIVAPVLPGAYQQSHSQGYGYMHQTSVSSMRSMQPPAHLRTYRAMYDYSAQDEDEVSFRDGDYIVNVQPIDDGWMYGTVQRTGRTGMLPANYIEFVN

[2] = molecular target: His-paxillin (full-length) (UniProt P49023 1-591)
His-lasp-2 (full-length) [3] = molecular target: T1, His-lasp-2 (full-length); remark: listed apart in the source

Sequence of His-paxillin (full-length) (P49023 whole entry): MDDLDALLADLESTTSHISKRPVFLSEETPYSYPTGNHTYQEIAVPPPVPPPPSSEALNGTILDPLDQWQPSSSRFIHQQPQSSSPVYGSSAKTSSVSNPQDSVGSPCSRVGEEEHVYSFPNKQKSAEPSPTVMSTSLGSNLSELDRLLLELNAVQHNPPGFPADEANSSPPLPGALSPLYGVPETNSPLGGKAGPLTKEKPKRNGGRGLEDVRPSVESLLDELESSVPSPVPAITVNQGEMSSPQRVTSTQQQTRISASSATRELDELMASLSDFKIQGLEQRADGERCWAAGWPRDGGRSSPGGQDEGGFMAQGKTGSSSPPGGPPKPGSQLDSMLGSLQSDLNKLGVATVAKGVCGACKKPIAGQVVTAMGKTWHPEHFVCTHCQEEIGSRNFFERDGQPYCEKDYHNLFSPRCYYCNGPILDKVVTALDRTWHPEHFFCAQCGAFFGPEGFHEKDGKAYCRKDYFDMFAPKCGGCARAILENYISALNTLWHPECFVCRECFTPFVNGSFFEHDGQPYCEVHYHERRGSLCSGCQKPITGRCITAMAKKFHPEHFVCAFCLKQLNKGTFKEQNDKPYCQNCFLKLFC

Kd (His-lasp-2 (full-length) [1]): ~140 nM
B1: His-vinculin-tail (amino acids 840-1066) (domain or fragment)
chain: PDFPPPPPDLEQLRLTDELAPPKPPLPEGEVPPPRPPPPEEKDEEFPEQKAGEVINQPMMMAARQLHDEARKWSSKGNDIIAAAKRMALLMAEMSRLVRGGSGTKRALIQCAKDIAKASDEVTRLAKEVAKQCTDKRIRTNLLQVCERIPTISTQLKILSTVKATMLGRTNISDEESEQATEMLVHNAQNLMQSVKETVREAEAASIKIRTDAGFTLRWVRKTPWYQ

Kd [2]: ~20 nM
B2: GST-lasp-2 (full-length) (natural protein)
chain: MNPQCARCGKVVYPTEKVNCLDKYWHKGCFHCEVCKMALNMNNYKGYEKKPYCNAHYPKQSFTTVADTPENLRLKQQSELQSQVKYKRDFEESKGRGFSIVTDTPELQRLKRTQEQISNVKYHEDFEKTKGRGFTPVVDDPVTERVRKSTQVVSDAAYKGVQPHVVEMDRRPGIIVAPVLPGAYQQSHSQGYGYMHQTSVSSMRSMQPPAHLRTYRAMYDYSAQDEDEVSFRDGDYIVNVQPIDDGWMYGTVQRTGRTGMLPANYIEFVN

Kd (His-lasp-2 (full-length) [3]): ~15 nM
B3: GST-lasp-1 (full-length) (natural protein)
chain: MNPNCARCGKIVYPTEKVNCLDKYWHKACFHCETCKMTLNMKNYKGYEKKPYCNAHYPKQSFTMVADTPENLRLKQQSELQSQVRYKEEFEKNKGKGFSVVADTPELQRIKKTQDQISNIKYHEEFEKSRMGPSGGEGVEPERREAQDSSSYRRPTEQQQPQPHHIPTSAPVYQQPQQQQMTSSYGGYKEPAAPVSIQRSAPGGGGKRYRAVYDYSAADEDEVSFQDGDTIVNVQQIDDGWMYGTVERTGDTGMLPANYVEAI
